These results are taken from PMC2575790.

This experiment deals with GST–α-adaptin ear (UniProt P17427). Briefly: pull-down.
Sequence of GST–α-adaptin ear (P17427 whole entry): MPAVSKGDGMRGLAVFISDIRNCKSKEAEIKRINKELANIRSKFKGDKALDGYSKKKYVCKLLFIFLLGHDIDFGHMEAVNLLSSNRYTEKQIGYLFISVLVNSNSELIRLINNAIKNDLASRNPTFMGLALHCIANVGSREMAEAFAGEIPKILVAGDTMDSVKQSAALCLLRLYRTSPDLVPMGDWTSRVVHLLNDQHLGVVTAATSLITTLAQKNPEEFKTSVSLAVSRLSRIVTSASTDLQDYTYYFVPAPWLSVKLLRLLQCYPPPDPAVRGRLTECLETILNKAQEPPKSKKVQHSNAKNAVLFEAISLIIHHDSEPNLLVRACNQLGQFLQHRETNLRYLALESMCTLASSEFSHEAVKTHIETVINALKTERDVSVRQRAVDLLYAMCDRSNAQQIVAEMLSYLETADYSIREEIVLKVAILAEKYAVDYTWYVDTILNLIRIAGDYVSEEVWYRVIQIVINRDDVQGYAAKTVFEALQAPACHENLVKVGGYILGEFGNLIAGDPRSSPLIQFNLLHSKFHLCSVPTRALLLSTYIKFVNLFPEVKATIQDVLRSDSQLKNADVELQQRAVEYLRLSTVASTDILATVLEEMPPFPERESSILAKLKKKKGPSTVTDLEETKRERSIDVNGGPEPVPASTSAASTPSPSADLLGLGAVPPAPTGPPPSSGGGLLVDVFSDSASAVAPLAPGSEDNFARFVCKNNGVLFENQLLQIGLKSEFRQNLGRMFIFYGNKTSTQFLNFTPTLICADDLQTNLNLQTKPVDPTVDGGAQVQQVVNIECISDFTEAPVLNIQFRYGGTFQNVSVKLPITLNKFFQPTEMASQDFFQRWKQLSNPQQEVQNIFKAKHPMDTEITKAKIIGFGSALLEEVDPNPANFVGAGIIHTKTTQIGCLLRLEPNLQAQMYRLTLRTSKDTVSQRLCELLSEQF

Sequence of HA–hRME-6^wt (human RME-6, full length) (natural protein) (Q14C86 whole entry): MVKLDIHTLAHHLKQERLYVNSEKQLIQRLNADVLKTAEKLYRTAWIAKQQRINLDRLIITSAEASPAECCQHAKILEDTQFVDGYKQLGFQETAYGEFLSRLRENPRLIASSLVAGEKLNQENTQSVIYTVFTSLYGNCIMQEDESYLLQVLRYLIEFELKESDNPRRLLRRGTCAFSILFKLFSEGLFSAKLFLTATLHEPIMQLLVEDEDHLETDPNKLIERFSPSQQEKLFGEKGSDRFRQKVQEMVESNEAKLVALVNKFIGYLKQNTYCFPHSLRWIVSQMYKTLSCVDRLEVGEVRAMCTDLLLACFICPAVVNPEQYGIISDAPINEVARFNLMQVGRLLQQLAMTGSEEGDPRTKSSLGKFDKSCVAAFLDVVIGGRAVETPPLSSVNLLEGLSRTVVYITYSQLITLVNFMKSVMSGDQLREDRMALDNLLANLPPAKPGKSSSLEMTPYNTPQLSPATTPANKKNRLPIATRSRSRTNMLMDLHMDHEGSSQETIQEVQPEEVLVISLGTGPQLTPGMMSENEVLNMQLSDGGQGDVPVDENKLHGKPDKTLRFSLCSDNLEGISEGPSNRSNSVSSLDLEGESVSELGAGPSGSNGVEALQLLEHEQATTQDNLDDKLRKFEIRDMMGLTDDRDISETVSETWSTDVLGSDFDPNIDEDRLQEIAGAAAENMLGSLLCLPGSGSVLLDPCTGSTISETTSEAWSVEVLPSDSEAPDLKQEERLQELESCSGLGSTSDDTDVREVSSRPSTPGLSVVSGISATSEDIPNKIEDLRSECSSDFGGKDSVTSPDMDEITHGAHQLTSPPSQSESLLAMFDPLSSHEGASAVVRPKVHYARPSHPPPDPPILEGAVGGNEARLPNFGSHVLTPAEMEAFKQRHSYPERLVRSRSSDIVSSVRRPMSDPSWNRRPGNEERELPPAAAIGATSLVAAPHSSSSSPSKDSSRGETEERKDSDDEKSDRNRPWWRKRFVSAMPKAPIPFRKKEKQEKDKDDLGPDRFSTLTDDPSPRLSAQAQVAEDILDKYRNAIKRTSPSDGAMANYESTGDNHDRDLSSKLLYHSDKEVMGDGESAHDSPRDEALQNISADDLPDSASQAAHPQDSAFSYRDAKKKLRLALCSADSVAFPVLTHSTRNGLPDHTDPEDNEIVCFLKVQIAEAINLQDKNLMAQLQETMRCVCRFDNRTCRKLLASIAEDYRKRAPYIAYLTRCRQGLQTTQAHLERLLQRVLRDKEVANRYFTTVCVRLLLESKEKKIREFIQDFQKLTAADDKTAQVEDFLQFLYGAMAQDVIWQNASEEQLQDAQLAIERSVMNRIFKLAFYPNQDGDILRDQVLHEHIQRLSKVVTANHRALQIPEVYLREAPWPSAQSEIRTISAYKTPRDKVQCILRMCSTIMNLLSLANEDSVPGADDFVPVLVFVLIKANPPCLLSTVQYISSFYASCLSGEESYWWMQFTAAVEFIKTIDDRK

Take HA–hRME-6^F1487A (natural protein): the fold reduction of binding against hRME-6^wt came to 5 fold.

With “HA–hRME-6^wt (human RME-6, full length) (natural protein)”, the fold reduction of binding against hRME-6 from mock-treated cytosol is above 2 fold.
